# Assay results: the Human Domainome abundance scans (Beltran et al. 2025)
# ± gives the uncertainty stated by the source.
# B1: V(D)J recombination-activating protein 2, residues 415 to 491; numbered along this chain, P55895 (parent)
# chain: YWITCCPTCDVDINTWVPFYSTELNKPAMIYCSHGDGHWVHAQCMDLAERTLIHLSAGSNKYYCNEHVEIARALHTP
# Variants of: B1
# Assay: abundance fitness (aPCA) (normalised: wild type 0, dead -1); higher = more abundant; growth selection in yeast, the domain comes from the species named
# Conditions: Homo sapiens
row,Variant,abundance fitness
1,G58L,0.025 ± 0.078
2,V17L,-0.056 ± 0.11
3,V17Q,0.074 ± 0.19
4,V17E,0.046 ± 0.33
5,V17F,0.109 ± 0.23
6,P18M,-0.579 ± 0.24
7,P18E,-0.28 ± 0.34
8,P18L,-0.038 ± 0.25
9,P18N,-0.453 ± 0.27
10,P18I,-0.892 ± 0.29
11,P18G,-0.36 ± 0.2
12,I30M,-0.219 ± 0.24
13,I30K,0.147 ± 0.23
14,I30R,-0.322 ± 0.22
15,A42E,-0.883 ± 0.14
16,A42Q,-0.605 ± 0.17
17,A42T,-0.744 ± 0.12
18,A42L,-0.684 ± 0.087
19,A42K,-0.411 ± 0.11
20,L47T,-0.101 ± 0.056
21,L47R,-0.419 ± 0.042

row,Variant,abundance fitness
1,L47K,-0.515 ± 0.086
2,L47Y,-0.508 ± 0.15
3,M29I,-0.234 ± 0.29
4,M29C,-0.532 ± 0.3
5,M29L,0.072 ± 0.19
6,M29R,0.055 ± 0.23
7,M29G,-0.377 ± 0.23
8,K26M,-0.597 ± 0.35
9,K26G,-0.17 ± 0.15
10,K26Y,-0.421 ± 0.43
11,K26R,-0.006 ± 0.12
12,K26N,-0.03 ± 0.17
13,Y62Q,-0.312 ± 0.12
14,Y62I,-0.281 ± 0.097
15,Y62L,-0.304 ± 0.072
16,Y62M,-0.206 ± 0.19
17,Y62C,-0.442 ± 0.2
18,N25E,0.167 ± 0.17
19,N25Y,-0.344 ± 0.36
20,N25L,0.073 ± 0.14
21,N25A,-0.124 ± 0.19

row,Variant,abundance fitness
1,N25C,-0.309 ± 0.15
2,N25W,-0.024 ± 0.2
3,N25D,-0.297 ± 0.33
4,N25G,0.01 ± 0.11
5,T51V,-0.043 ± 0.055
6,T51W,-0.412 ± 0.11
7,T51G,-0.048 ± 0.055
8,D10T,0.019 ± 0.21
9,D10N,0.033 ± 0.14
10,D10G,-0.03 ± 0.13
11,D10R,0.195 ± 0.17
12,D10Q,0.121 ± 0.21
13,K61R,-0.287 ± 0.2
14,K61W,-0.159 ± 0.2
15,K61E,-0.002 ± 0.16
16,M45T,-0.395 ± 0.099
17,M45G,-0.43 ± 0.058
18,M45Y,-0.296 ± 0.21
19,M45V,-0.217 ± 0.064
20,M45C,-0.181 ± 0.099
21,H54R,-0.056 ± 0.074

row,Variant,abundance fitness
1,H54T,-0.12 ± 0.083
2,H54V,0.008 ± 0.073
3,H54D,0.042 ± 0.18
4,H54L,0.016 ± 0.06
5,H54P,-0.007 ± 0.04
6,R72S,0.073 ± 0.071
7,R72T,0.056 ± 0.08
8,R72G,0.022 ± 0.11
9,R72V,-0.016 ± 0.12
10,R72W,-0.168 ± 0.075
11,R72K,0.022 ± 0.18
12,R72Y,-0.332 ± 0.16
13,R72D,0.032 ± 0.21
14,E23C,-0.851 ± 0.42
15,E23K,-0.54 ± 0.28
16,E23H,-0.635 ± 0.31
17,E23R,-1.03 ± 0.24
18,E23G,-0.372 ± 0.17
19,Q43P,-0.771 ± 0.48
20,Q43L,-0.196 ± 0.12
21,Q43E,-0.344 ± 0.25
